This note sets out measurements from publication PMC9284284.

In this data set the target is T1, TCP4 DNA-binding domain (Arabidopsis thaliana, UniProt Q8LPR5 45-103).
T1 sequence: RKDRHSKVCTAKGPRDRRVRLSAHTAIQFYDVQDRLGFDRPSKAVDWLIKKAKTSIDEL
Briefly: EMSA. A general note: In EMSA bound probe runs differently from free probe, usually more slowly.

B1: SOC1-DNA (dsDNA)
DNA 1: TAATTAGTTTGTGTGGTCCTCCTCCCGATA
DNA 2: TATCGGGAGGAGGACCACACAAACTAATTA
In the case of B1, the binding result is reported as “binds”.
